{
  "source": "patent EP4631972A1",
  "about": "“SITE-SPECIFIC COUPLED PEGYLATED INTERLEUKIN-2 MUTANT WITH RECEPTOR AFFINITY PREFERENCE AND USE THEREOF” (priority 2022, dated 2024)",
  "molecular_target": "T1, IL-2αβγ triple receptor (Homo sapiens, UniProt P01589+P14784+P31785)",
  "T1 construct": "Uniprot P01589 1Met-551Ile constructed into plasmid pcDNA3.1/zeo; Uniprot P14784 1Met-551Val constructed into plasmid pcDNA3.1(+); Uniprot P31785 1Met-551Thr was constructed into plasmid pcDNA3.1/zeo; expressed in transfected cells; host or cells: 293EC18 cells, transient co-transfection with pCMV/JAK3 and PGL4.52/STAT5RE",
  "T1 sequence (P01589 22-272)": "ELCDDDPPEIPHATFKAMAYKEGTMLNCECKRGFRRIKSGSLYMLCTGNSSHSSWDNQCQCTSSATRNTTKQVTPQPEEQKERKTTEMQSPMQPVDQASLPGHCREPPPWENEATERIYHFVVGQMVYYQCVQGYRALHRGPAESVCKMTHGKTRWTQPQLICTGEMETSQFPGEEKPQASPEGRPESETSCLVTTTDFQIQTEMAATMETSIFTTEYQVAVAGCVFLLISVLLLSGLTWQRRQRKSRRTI",
  "T1 sequence (P14784 27-551)": "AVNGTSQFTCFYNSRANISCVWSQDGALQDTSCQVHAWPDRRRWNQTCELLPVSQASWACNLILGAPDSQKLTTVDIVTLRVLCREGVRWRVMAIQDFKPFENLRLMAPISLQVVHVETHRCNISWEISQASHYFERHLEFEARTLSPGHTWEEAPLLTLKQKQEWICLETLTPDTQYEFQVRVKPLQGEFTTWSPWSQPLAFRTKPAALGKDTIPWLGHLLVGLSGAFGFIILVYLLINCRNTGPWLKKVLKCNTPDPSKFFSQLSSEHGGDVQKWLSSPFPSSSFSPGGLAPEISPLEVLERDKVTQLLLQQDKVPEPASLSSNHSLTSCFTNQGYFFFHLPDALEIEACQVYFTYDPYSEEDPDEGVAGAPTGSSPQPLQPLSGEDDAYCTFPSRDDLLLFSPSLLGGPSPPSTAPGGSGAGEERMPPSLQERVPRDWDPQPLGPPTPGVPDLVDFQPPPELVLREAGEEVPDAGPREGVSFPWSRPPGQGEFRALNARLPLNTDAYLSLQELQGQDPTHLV",
  "T1 sequence (P31785 23-369)": "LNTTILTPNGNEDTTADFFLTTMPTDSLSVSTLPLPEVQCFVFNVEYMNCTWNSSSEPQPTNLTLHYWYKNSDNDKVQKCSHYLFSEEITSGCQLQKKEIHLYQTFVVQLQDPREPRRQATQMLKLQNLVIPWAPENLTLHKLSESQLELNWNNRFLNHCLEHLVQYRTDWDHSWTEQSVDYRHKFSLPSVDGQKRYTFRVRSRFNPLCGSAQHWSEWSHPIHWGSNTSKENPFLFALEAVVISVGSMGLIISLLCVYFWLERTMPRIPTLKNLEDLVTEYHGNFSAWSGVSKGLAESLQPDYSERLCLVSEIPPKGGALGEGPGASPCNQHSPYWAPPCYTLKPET",
  "experiment": "STAT5 reporter gene assay, activation of IL-2αβγ triple receptor in 293EC18/αβγ/JAK3/STAT5 cells",
  "type": "cell-based",
  "conditions": "Example 4, Figure 6, 80k PEG",
  "method": "Since the binding of IL-2 to the β and γ subunits of its receptor induces STAT5 phosphorylation, which subsequently leads to dimerization and translocation into the nucleus to promote target gene transcription, this example evaluates the ability of the mutant IL-2 polypeptides to induce signaling through the IL-2 receptor by measuring STAT5 phosphorylation.\nAdherent 293EC18 cells were cultured to about 90% confluence using conventional methods. After trypsin digestion, the cells were resuspended in cell culture medium to 4×10^5 cells/ml and 50 µl/well were added to two 96-well cell culture plates. After incubation at 37°C for 48 h, the supernatant was aspirated and fresh culture medium was added. […]\nEach IL2 mutant was diluted 4-fold in a gradient manner using PBS buffer, with a total of 11 dilutions and a starting concentration of 65.2 nM. […] Bio-Lite Luciferase Assay System reagents that have been mixed and equilibrated to room temperature were added to the cell culture plates to be tested at 100 µl/well, placed on a microplate shaker at 450 rpm to mix for 2 minutes, then allowed to stand at room temperature for 3 minutes, and the chemiluminescence value was detected with an enzyme plate reader.\nThe logarithm of the final concentration of each IL-2 mutant sample was used as the X-axis, and the chemiluminescence detection results were used as the Y-axis for plotting. Data were analyzed using the four-parameter logistic regression model in GraphPad Prism 9. Table 2 EC50 values for the activation of the IL-2αβγ triple receptor by PEG-IL-2 mutants as determined by a reporter gene assay.\nAccording to the method of Example 3, each polyethylene glycol-modified mutant obtained in this example was assessed for the binding preference to the IL2 receptors by a reporter assay. Table 4 EC50 values for the activation of the IL-2αβγ triple receptor by PEG-IL-2 mutants as determined by a reporter gene assay. […]",
  "data": [
    {"molecule": "80K-1PEG-IL2-N88R-N77C: IL-2 mutant N88R, N77C, conjugation site 77, PEG molecular weight 80kD (conjugate) APTSSSTKKTQLQLEHLLLDLQMILNGINNYKNPKLTRMLTFKFYMPKKATELKHLQCLEEELKPLEEVLNLAQSKC(PEG 80 kDa)FHLRPRDLISRINVIVLELKGSETTFMCEYADETATIVEFLNRWITFSQSIISTLT", "values": [
      {"measurement": "activation activity on the IL-2Rαβγ triple receptor compared with 80K-1PEG-IL2-N88R-D109C", "value": "slightly higher activation activity"}
    ]}
  ]
}
